Source: article PMC3820547

Experiments:
[1] = target: Replication Protein A (Q9V1Z1, Q9V1Y9, Q9V1Z0), His-tagged RPA complex (Pyrococcus abyssi); assay: SPR; RPA (100 nM, 10 min) held on a 5' biotinylated 32-mer ssDNA on a streptavidin surface; analytes injected at 16.67, 50, 150 and 450 nM; 25°C, PBS Tween 0.5%, 20 uL/min; referenced against ssDNA/RPA dissociation curves; 1:1 binding model
[2] = target: A1 subunit of the RNA polymerase, endogenous (Pyrococcus abyssi (endogenous in P. abyssi cell extract))
[3] = target: A2 subunit of the RNA polymerase, endogenous (Pyrococcus abyssi (endogenous in P. abyssi cell extract))

| Substance | stability relative to the RPA/catalytic subunit of DNA primase complex (from the dissociation constants of Figure 2) [1] [fold] | run-off transcripts in a promoter-specific in vitro transcription assay (gdh promoter; RNAP, TBP and TFB from P. furiosus), RPA 10-50 nM [2] [fold] | run-off transcripts in a promoter-specific in vitro transcription assay (gdh promoter; RNAP, TBP and TFB from P. furiosus), RPA 10-50 nM [3] [fold] |
| --- | --- | --- | --- |
| DNA Polymerase D (Q9V2F3, Q9V2F4), HIS-tagged complex (from UniProt Q9V2F3 1-619; Q9V2F4 1-1455) | 2 |  |  |
| Replication Protein A (Q9V1Z1, Q9V1Y9, Q9V1Z0), His-tagged RPA complex |  | 3 | 3 |
